# B1: Band 3 anion transport protein (Homo sapiens), P02730 (parent)
# chain: MEELQDDYEDMMEENLEQEEYEDPDIPESQMEEPAAHDTEATATDYHTTSHPGTHKVYVELQELVMDEKNQELRWMEAARWVQLEENLGENGAWGRPHLSHLTFWSLLELRRVFTKGTVLLDLQETSLAGVANQLLDRFIFEDQIRPQDREELLRALLLKHSHAGELEALGGVKPAVLTRSGDPSQPLLPQHSSLETQLFCEQGDGGTEGHSPSGILEKIPPDSEATLVLVGRADFLEQPVLGFVRLQEAAELEAVELPVPIRFLFVLLGPEAPHIDYTQLGRAAATLMSERVFRIDAYMAQSRGELLHSLEGFLDCSLVLPPTDAPSEQALLSLVPVQRELLRRRYQSSPAKPDSSFYKGLDLNGGPDDPLQQTGQLFGGLVRDIRRRYPYYLSDITDAFSPQVLAAVIFIYFAALSPAITFGGLLGEKTRNQMGVSELLISTAVQGILFALLGAQPLLVVGFSGPLLVFEEAFFSFCETNGLEYIVGRVWIGFWLILLVVLVVAFEGSFLVRFISRYTQEIFSFLISLIFIYETFSKLIKIFQDHPLQKTYNYNVLMVPKPQGPLPNTALLSLVLMAGTFFFAMMLRKFKNSSYFPGKLRRVIGDFGVPISILIMVLVDFFIQDTYTQKLSVPDGFKVSNSSARGWVIHPLGLRSEFPIWMMFASALPALLVFILIFLESQITTLIVSKPERKMVKGSGFHLDLLLVVGMGGVAALFGMPWLSATTVRSVTHANALTVMGKASTPGAAAQIQEVKEQRISGLLVAVLVGLSILMEPILSRIPLAVLFGIFLYMGVTSLSGIQLFDRILLLFKPPKYHPDVPYVKRVKTWRMHLFTGIQIICLAVLWVVKSTPASLALPFVLILTVPLRRVLLPLIFRNVELQCLDADDAKATFDEEEGRDEYDEVAMPV
# Variants of: B1
# Details: with g3p_rabit GAPDH
row,effect of a mutation on the interaction,Variant
1,decreasing interaction strength,D902A;E903A
2,decreasing interaction strength,Y904A
3,with no effect,D905A;E906A
